Experimental data from patent US20110091994A1, “Methods for Screening Compounds for Treating and/or Preventing an Hepatitis C Virus Infection” (priority 2008, published 2011).
Like-named read-outs stand apart in the source and are kept apart here.

How the values were obtained:
[1] = molecular target: T1, HCV ORFs (Gal4-DB fusions) (Hepatitis C virus genotype 1b, UniProt Q9WMX2); format: binding, HCV genotype 1b, isolate con1; conditions: human protein as prey;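 note: yeast two-hybrid screens using HCV genotype 1b proteins fused to Gal4-DB as baits against prey cDNA libraries from human spleen and foetal brain, IMAP1 via transformation and IMAP2 via mating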
T1 construct: expressed in transfected cells; host or cells: Saccharomyces cerevisiae MAV203 (IMAP1) / AH109 (IMAP2)

[2] = molecular target: T2, HCV proteins (Hepatitis C virus genotype 1b, UniProt Q9WMX2); test: Validation by Y2H pairwise matrices; format: binding;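 note: yeast two-hybrid pairwise tests of interactions first found in Y2H screens of HCV bait proteins against human cDNA libraries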
T2 construct: expressed in transfected cells

[3] = interaction with HCV protein p7

B1: SMEK2 (protein, UniProt Q5MIZ7 1-849, looked up)
Serine/threonine-protein …: MSDTRRRVKVYTLNEDRQWDDRGTGHVSSTYVEELKGMSLLVRAESDGSLLLESKINPNTAYQKQQDTLIVWSEAENYDLALSFQEKAGCDEIWEKICQVQGKDPSVEVTQDLIDESEEERFEEMPETSHLIDLPTCELNKLEEIADLVTSVLSSPIRREKLALALENEGYIKKLLQLFQACENLENTEGLHHLYEIIRGILFLNKATLFEVMFSDECIMDVVGCLEYDPALAQPKRHREFLTKTAKFKEVIPITDSELRQKIHQTYRVQYIQDIILPTPSVFEENFLSTLTSFIFFNKVEIVSMLQEDEKFLSEVFAQLTDEATDDDKRRELVNFFKEFCAFSQTLQPQNRDAFFKTLAKLGILPALEIVMGMDDLQVRSAATDIFSYLVEFSPSMVREFVMQEAQQSDDDILLINVVIEQMICDTDPELGGAVQLMGLLRTLIDPENMLATTNKTEKSEFLNFFYNHCMHVLTAPLLTNTSEDKCEKDFFLKHYRYSWSFICTPSHSHSHSTPSSSISQDNIVGSNKNNTICPDNYQTAQLLALILELLTFCVEHHTYHIKNYIMNKDLLRRVLVLMNSKHTFLALCALRFMRRIIGLKDEFYNRYITKGNLFEPVINALLDNGTRYNLLNSAVIELFEFIRVEDIKSLTAHIVENFYKALESIEYVQTFKGLKTKYEQEKDRQNQKLNSVPSILRSNRFRRDAKALEEDEEMWFNEDEEEEGKAVVAPVEKPKPEDDFPDNYEKFMETKKAKESEDKENLPKRTSPGGFKFTFSHSASAANGTNSKSVVAQIPPATSNGSSSKTTNLPTSVTATKGSLVGLVDYPDDEEEDEEEESSPRKRPRLGS
**Q.** Which results are given for B1?
**A.** IMAP Y2H IMAP1 (number of IST) ([1]; HCV protein E2 as bait): 1; Y2H matrices ([2]; validation of interaction with HCV protein E2): +

B2: CEP68 (protein, UniProt Q76N32 1-757, looked up)
Centrosomal protein of 68 kDa: MALGEEKAEAEASEDTKAQSYGRGSCRERELDIPGPMSGEQPPRLEAEGGLISPVWGAEGIPAPTCWIGTDPGGPSRAHQPQASDANREPVAERSEPALSGLPPATMGSGDLLLSGESQVEKTKLSSSEEFPQTLSLPRTTTICSGHDADTEDDPSLADLPQALDLSQQPHSSGLSCLSQWKSVLSPGSAAQPSSCSISASSTGSSLQGHQERAEPRGGSLAKVSSSLEPVVPQEPSSVVGLGPRPQWSPQPVFSGGDASGLGRRRLSFQAEYWACVLPDSLPPSPDRHSPLWNPNKEYEDLLDYTYPLRPGPQLPKHLDSRVPADPVLQDSGVDLDSFSVSPASTLKSPTNVSPNCPPAEATALPFSGPREPSLKQWPSRVPQKQGGMGLASWSQLASTPRAPGSRDARWERREPALRGAKDRLTIGKHLDMGSPQLRTRDRGWPSPRPEREKRTSQSARRPTCTESRWKSEEEVESDDEYLALPARLTQVSSLVSYLGSISTLVTLPTGDIKGQSPLEVSDSDGPASFPSSSSQSQLPPGAALQGSGDPEGQNPCFLRSFVRAHDSAGEGSLGSSQALGVSSGLLKTRPSLPARLDRWPFSDPDVEGQLPRKGGEQGKESLVQCVKTFCCQLEELICWLYNVADVTDHGTAARSNLTSLKSSLQLYRQFKKDIDEHQSLTESVLQKGEILLQCLLENTPVLEDVLGRIAKQSGELESHADRLYDSILASLDMLAGCTLIPDKKPMAAMEHPCEGV
**Q.** Which results are given for B2?
**A.** IMAP Y2H IMAP1 (number of IST) ([1]; HCV protein NS5B as bait): 1; Y2H matrices ([2]; interaction with HCV protein NS5B): +

B3: USP19 (protein, UniProt O94966 1-1318, looked up)
Ubiquitin carboxyl-terminal …: MSGGASATGPRRGPPGLEDTTSKKKQKDRANQESKDGDPRKETGSRYVAQAGLEPLASGDPSASASHAAGITGSRHRTRLFFPSSSGSASTPQEEQTKEGACEDPHDLLATPTPELLLDWRQSAEEVIVKLRVGVGPLQLEDVDAAFTDTDCVVRFAGGQQWGGVFYAEIKSSCAKVQTRKGSLLHLTLPKKVPMLTWPSLLVEADEQLCIPPLNSQTCLLGSEENLAPLAGEKAVPPGNDPVSPAMVRSRNPGKDDCAKEEMAVAADAATLVDEPESMVNLAFVKNDSYEKGPDSVVVHVYVKEICRDTSRVLFREQDFTLIFQTRDGNFLRLHPGCGPHTTFRWQVKLRNLIEPEQCTFCFTASRIDICLRKRQSQRWGGLEAPAARVGGAKVAVPTGPTPLDSTPPGGAPHPLTGQEEARAVEKDKSKARSEDTGLDSVATRTPMEHVTPKPETHLASPKPTCMVPPMPHSPVSGDSVEEEEEEEKKVCLPGFTGLVNLGNTCFMNSVIQSLSNTRELRDFFHDRSFEAEINYNNPLGTGGRLAIGFAVLLRALWKGTHHAFQPSKLKAIVASKASQFTGYAQHDAQEFMAFLLDGLHEDLNRIQNKPYTETVDSDGRPDEVVAEEAWQRHKMRNDSFIVDLFQGQYKSKLVCPVCAKVSITFDPFLYLPVPLPQKQKVLPVFYFAREPHSKPIKFLVSVSKENSTASEVLDSLSQSVHVKPENLRLAEVIKNRFHRVFLPSHSLDTVSPSDTLLCFELLSSELAKERVVVLEVQQRPQVPSVPISKCAACQRKQQSEDEKLKRCTRCYRVGYCNQLCQKTHWPDHKGLCRPENIGYPFLVSVPASRLTYARLAQLLEGYARYSVSVFQPPFQPGRMALESQSPGCTTLLSTGSLEAGDSERDPIQPPELQLVTPMAEGDTGLPRVWAAPDRGPVPSTSGISSEMLASGPIEVGSLPAGERVSRPEAAVPGYQHPSEAMNAHTPQFFIYKIDSSNREQRLEDKGDTPLELGDDCSLALVWRNNERLQEFVLVASKELECAEDPGSAGEAARAGHFTLDQCLNLFTRPEVLAPEEAWYCPQCKQHREASKQLLLWRLPNVLIVQLKRFSFRSFIWRDKINDLVEFPVRNLDLSKFCIGQKEEQLPSYDLYAVINHYGGMIGGHYTACARLPNDRSSQRSDVGWRLFDDSTVTTVDESQVVTRYAYVLFYRRRNSPVERPPRAGHSEHHPDLGPAAEAAASQASRIWQELEAEEEPVPEGSGPLGPWGPQDWVGPLPRGPTTPDEGCLRYFVLGTVAALVALVLNVFYPLVSQSRWR
**Q.** How did the “IMAP Y2H IMAP1 (number of IST)” value ([1]; HCV protein NS5A as bait) turn out when B3 was run?
**A.** 3

**Q.** What about the Y2H matrices ([2]; interaction with HCV protein NS5A) of the same molecule?
**A.** +

B4: SEPT10 (protein, UniProt Q9P0V9 1-454, looked up)
Septin-10: MASSEVARHLLFQSHMATKTTCMSSQGSDDEQIKRENIRSLTMSGHVGFESLPDQLVNRSIQQGFCFNILCVGETGIGKSTLIDTLFNTNFEDYESSHFCPNVKLKAQTYELQESNVQLKLTIVNTVGFGDQINKEESYQPIVDYIDAQFEAYLQEELKIKRSLFTYHDSRIHVCLYFISPTGHSLKTLDLLTMKNLDSKVNIIPVIAKADTVSKTELQKFKIKLMSELVSNGVQIYQFPTDDDTIAKVNAAMNGQLPFAVVGSMDEVKVGNKMVKARQYPWGVVQVENENHCDFVKLREMLICTNMEDLREQTHTRHYELYRRCKLEEMGFTDVGPENKPVSVQETYEAKRHEFHGERQRKEEEMKQMFVQRVKEKEAILKEAERELQAKFEHLKRLHQEERMKLEEKRRLLEEEIIAFSKKKATSEIFHSQSFLATGSNLRKDKDRKNSNFL
**Q.** Which results are given for B4?
**A.** IMAP Y2H IMAP1 (number of IST) ([1]; HCV protein NS3 as bait): 1; Y2H matrices ([2]; validation of interaction with HCV protein NS3): +

B5: LMNB1 (protein, UniProt P20700 2-583, looked up)
Lamin-B1: ATATPVPPRMGSRAGGPTTPLSPTRLSRLQEKEELRELNDRLAVYIDKVRSLETENSALQLQVTEREEVRGRELTGLKALYETELADARRALDDTARERAKLQIELGKCKAEHDQLLLNYAKKESDLNGAQIKLREYEAALNSKDAALATALGDKKSLEGDLEDLKDQIAQLEASLAAAKKQLADETLLKVDLENRCQSLTEDLEFRKSMYEEEINETRRKHETRLVEVDSGRQIEYEYKLAQALHEMREQHDAQVRLYKEELEQTYHAKLENARLSSEMNTSTVNSAREELMESRMRIESLSSQLSNLQKESRACLERIQELEDLLAKEKDNSRRMLTDKEREMAEIRDQMQQQLNDYEQLLDVKLALDMEISAYRKLLEGEEERLKLSPSPSSRVTVSRASSSRSVRTTRGKRKRVDVEESEASSSVSISHSASATGNVCIEEIDVDGKFIRLKNTSEQDQPMGGWEMIRKIGDTSVSYKYTSRYVLKAGQTVTIWAANAGVTASPPTDLIWKNQNSWGTGEDVKVILKNSQGEEVAQRSTVFKTTIPEEEEEEEEAAGVVVEEELFHQQGTPRASNRSC
**Q.** Which results are given for B5?
**A.** IMAP Y2H IMAP1 (number of IST) ([1]; HCV protein p7 as bait): 1; Y2H matrices [2, 3]: +

B6: FXYD6 (protein, UniProt Q9H0Q3 19-95, looked up)
FXYD domain-containing ion …: SAAEKEKEMDPFHYDYQTLRIGGLVFAVVLFSVGILLILSRRCKCSFNQKPRAPGDEEAQVENLITANATEPQKAEN
**Q.** What does the source list for B6?
**A.** IMAP Y2H IMAP1 (number of IST) ([1]; HCV protein p7 as bait): 1; Y2H matrices [2, 3]: +
